The data set concerns the target T1, SPRTN WT (human, UniProt Q9H040 1-489).
T1 sequence: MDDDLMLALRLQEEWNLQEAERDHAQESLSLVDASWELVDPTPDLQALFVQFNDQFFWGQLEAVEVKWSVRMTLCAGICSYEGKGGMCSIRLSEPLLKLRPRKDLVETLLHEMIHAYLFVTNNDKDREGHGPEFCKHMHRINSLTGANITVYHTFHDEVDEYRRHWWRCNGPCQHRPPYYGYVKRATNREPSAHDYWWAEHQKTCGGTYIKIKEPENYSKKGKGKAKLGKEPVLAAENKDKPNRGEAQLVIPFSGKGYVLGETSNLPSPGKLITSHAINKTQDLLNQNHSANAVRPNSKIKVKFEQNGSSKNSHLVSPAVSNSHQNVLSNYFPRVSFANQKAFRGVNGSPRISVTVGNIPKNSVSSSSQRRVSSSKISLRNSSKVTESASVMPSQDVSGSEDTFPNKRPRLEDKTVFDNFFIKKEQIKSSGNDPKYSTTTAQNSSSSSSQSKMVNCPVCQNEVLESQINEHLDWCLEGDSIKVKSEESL
The data set is described as follows: fluorescence polarization; affinity similar to dsDNA; Probe annealing buffer: 10 mM HEPES pH 7.5, 50 mM NaCl; FP assay buffer and temperature not in the material. The note with it: protein: recombinant; tags: His-ZB tag cleaved by TEV; label: FITC (position not in material); single strand. (In general: In fluorescence polarisation assays a small probe gives low polarisation when free and higher when bound to something large.)

B1: ssDNA (OD1) (ssDNA)
DNA: ATCGATAGTCGGATCCTCTAGACAGCTCCATGTAGCAAGGCACTGGTAGAATTCGGCAGCGTC
For the molecule B1, the binding result is “binds”.

Source of the values: PMC5128727, “Metalloprotease SPRTN/DVC1 Orchestrates Replication-Coupled DNA-Protein Crosslink Repair”.
